The chains are these.
B1: variant CD80 A12V/S15F/Y31H/M38L/T41G/M43L/D90N/T130A/P137L/N149D/N152T (Fc fusion)
chain: VIHVTKEVKEVVTLFCGHNVSVEELAQTRIHWQKEKKLVLGMLSGDMNIWPEYKNRTIFDITNNLSIVILALRPSDEGTYECVVLKYEKNAFKREHLAEVTLSVKADFPTPSISDFEIPTSNIRRIICSASGGFPELHLSWLENGEELDAITTTVSQDPETELYAVSSKLDFNMTTNHSFMCLIKYGHLRVNQTFNWNTTKQEHFPDN
B2: variant CD80 S44P/L70Q/A91G/T130A (Fc fusion)
chain: VIHVTKEVKEVATLSCGHNVSVEELAQTRIYWQKEKKMVLTMMPGDMNIWPEYKNRTIFDITNNLSIVIQALRPSDEGTYECVVLKYEKDGFKREHLAEVTLSVKADFPTPSISDFEIPTSNIRRIICSASGGFPEPHLSWLENGEELNAINTTVSQDPETELYAVSSKLDFNMTTNHSFMCLIKYGHLRVNQTFNWNTTKQEHFPDN
B3: variant CD80 K37E/F59S/L70Q/A91G/T120S/T130A (Fc fusion)
chain: B2 chain with K37E, P44S, F59S, T120S
B4: variant CD80 L70Q/A91G/T110A/I118V/T120S/T130A (Fc fusion)
chain: B2 chain with P44S, T110A, I118V, T120S
B5: variant CD80 K54M/L70Q/A91G/Y164H (Fc fusion)
chain: B2 chain with P44S, K54M, A130T, Y164H
B6: variant CD80 V22A/L70Q/S121P (Fc fusion)
chain: B2 chain with V22A, P44S, G91A, S121P, A130T
B7: variant CD80 I67F/L70R/E88G/A91G/I118V/T120S/T130A (Fc fusion)
chain: B2 chain with P44S, I67F, Q70R, E88G, I118V, T120S
B8: variant CD80 A91G/L102S (Fc fusion)
chain: B2 chain with P44S, Q70L, L102S, A130T

Substitutions are numbered along the chain they refer to. In names and notes the source's numbering stands.

For the first assay, the target named is CTLA-4 (human). The assay can be described thus: flow cytometry, cells expressing CTLA-4. For orientation: A flow cytometer gives signals particle by particle.
Chain of CTLA-4 (human) (chain, as listed by the source): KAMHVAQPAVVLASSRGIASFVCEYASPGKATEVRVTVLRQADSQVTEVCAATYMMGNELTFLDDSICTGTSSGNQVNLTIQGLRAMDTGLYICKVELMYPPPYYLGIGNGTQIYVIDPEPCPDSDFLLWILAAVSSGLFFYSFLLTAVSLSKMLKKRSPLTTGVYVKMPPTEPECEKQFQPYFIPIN
Take B1: the MFI amounted to 6 MFI and the parental ratio worked out at 0.03.
In the same order, the values of B2 are 134 MFI and 0.64.
The corresponding values for B3 are 74 MFI and 0.36.
In the same order, the values of B4 are 14 MFI and 0.07.
Consider B5, for which the MFI was determined as 131 MFI and the parental ratio came out at 0.63.
For B6, the MFI worked out at 7 MFI and the parental ratio was 0.04.
On to B7, for which the MFI came to 6 MFI and the parental ratio stood at 0.03.
B8: the MFI is 6 MFI and the parental ratio worked out at 0.03.

For the next assay, the target named is PD-L1 (human). The assay can be described thus: flow cytometry, cells expressing PD-L1.
Chain of PD-L1 (human) (chain, as listed by the source): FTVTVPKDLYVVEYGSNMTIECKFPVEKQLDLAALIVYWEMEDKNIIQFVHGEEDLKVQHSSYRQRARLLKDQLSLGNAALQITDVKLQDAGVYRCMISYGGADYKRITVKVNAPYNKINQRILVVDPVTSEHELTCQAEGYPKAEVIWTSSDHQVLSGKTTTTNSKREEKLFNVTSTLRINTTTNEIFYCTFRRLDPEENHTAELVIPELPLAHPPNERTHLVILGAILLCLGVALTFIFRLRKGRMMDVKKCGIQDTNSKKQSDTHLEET
Regarding B1, the MFI amounted to 5 MFI and the parental ratio turned out to be 0.08.
For B2, the MFI came out at 5 MFI and the parental ratio was determined as 0.07.
In the same order, the values of B3 are 6 MFI and 0.08.
The corresponding values for B4 are 5 MFI and 0.07.
In the same order, the values of B5 are 5 MFI and 0.08.
In the case of B6, the MFI came out at 5 MFI and the parental ratio was 0.07.
As for B7, the MFI came out at 6 MFI and the parental ratio was found to be 0.08.
In the same order, the values of B8 are 5 MFI and 0.08.

A further assay deals with CD28 (human) (UniProt P10747). In words: flow cytometry, cells expressing CD28.
B1: the MFI came to 6 MFI and the parental ratio came out at 0.06.
As to B2, the MFI came to 88 MFI and the parental ratio is 0.92.
In the same order, the values of B3 are 20 MFI and 0.21.
In the same order, the values of B4 are 8 MFI and 0.09.
On to B5, for which the MFI came to 68 MFI and the parental ratio amounted to 0.71.
On to B6, for which the MFI was determined as 5 MFI and the parental ratio is 0.06.
For the molecule B7, the MFI stood at 5 MFI and the parental ratio was determined as 0.05.
The corresponding values for B8 are 6 MFI and 0.06.
